Measured values as given in article PMC2637153.

What was measured:
[1] = biological target: Allochromatium vinosum DsrC Cys100Ser (Allochromatium vinosum); test: SEC
[2] = biological target: Allochromatium vinosum DsrC, wild type, recombinant with amino-terminal His tag (Allochromatium vinosum); test: SEC

Substance | stoichiometry N [1] | stoichiometry N [2]
Allochromatium vinosum DsrC Cys100Ser (natural protein) | 2 | 
Allochromatium vinosum DsrC, wild type, recombinant with amino-terminal His tag (natural protein) |  | 2
